Results on five molecules are retold here after paper PMC5347347, “A Localized Complex of Two Protein Oligomers Controls the Orientation of Cell Polarity” (mBio, 2017).

In data set [1] the target is SpmX-L (SpmX lysozyme-like domain alone, residues 1 to 155) (Caulobacter crescentus). Put plainly: MST; Atto-488-labelled SpmX* or SpmX-L* held constant at 25 nM; PopZ (max 10 μM), DivJ (max 40 μM) or unlabelled SpmX titrated in 2-fold serial dilutions; incubated 10 min at room temperature; fitted by the law of mass action.
Data set [2] addresses SpmX (purified WT SpmX without its transmembrane region, residues 1 to 355) (Caulobacter crescentus). Described as above.
The target in data set [3] is SpmX E19R (purified) (Caulobacter crescentus). Put plainly: SEC; analytical size exclusion, Superdex 200 Increase 10/300 GL; apparent masses from a Bio-Rad gel filtration standard; purified SpmX variants alone.
Data set [4] has as its target PopZ (purified, His-tagged) (Caulobacter crescentus). Description: SPR; PopZ immobilised on the sensor chip; 2-fold serial dilutions of WT SpmX or SpmX-L injected, with washes between injections.
In data set [5] the target is T1, DivJ histidine kinase (purified without its TM regions, His-tagged) (Caulobacter crescentus, UniProt Q03228 189-597).
T1 construct: DivJ histidine kinase, Caulobacter crescentus, purified without its TM regions (the cytoplasmic portion); Construct limits are expected in Text S1; also called cytoplasmic portion of DivJ; source: purified, His-tagged
T1 sequence (looked up): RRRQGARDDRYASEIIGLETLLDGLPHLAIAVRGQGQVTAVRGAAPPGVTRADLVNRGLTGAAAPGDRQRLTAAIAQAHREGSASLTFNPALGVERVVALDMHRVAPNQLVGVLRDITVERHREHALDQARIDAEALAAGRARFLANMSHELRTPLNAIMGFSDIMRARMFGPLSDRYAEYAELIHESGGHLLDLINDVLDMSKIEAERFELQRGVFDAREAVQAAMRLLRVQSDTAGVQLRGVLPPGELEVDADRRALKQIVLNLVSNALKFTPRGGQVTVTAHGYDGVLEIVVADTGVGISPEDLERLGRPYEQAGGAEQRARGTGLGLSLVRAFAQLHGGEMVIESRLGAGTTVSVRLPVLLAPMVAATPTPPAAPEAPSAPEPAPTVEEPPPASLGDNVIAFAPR
Put plainly: MST; Atto-488-labelled SpmX* or SpmX-L* held constant at 25 nM; PopZ (max 10 μM), DivJ (max 40 μM) or unlabelled SpmX titrated in 2-fold serial dilutions; incubated 10 min at room temperature; fitted by the law of mass action. The following applies: both partners purified.

Data set [6] concerns the molecule itself. Described as above.

PopZ (purified, His-tagged) (Caulobacter crescentus), sequence (A0A0H3C7Y4 entry or part of it): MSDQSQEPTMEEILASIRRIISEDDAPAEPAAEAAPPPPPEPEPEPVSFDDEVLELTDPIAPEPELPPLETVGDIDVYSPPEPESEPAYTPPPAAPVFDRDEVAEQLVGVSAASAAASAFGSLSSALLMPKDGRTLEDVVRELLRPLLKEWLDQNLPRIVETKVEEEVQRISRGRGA

Molecule “DivJ histidine kinase (purified without its TM regions, His-tagged) (from UniProt Q03228 189-597) (domain or fragment)” returned a Kd in data set [1] of 6300 nM. As to “PopZ (purified, His-tagged) (natural protein)”, the results for the Kd in data set [2] and in data set [1] were 600 nM and 120 nM, respectively. “SpmX E19R (purified) (domain or fragment)”: the stoichiometry N in data set [3] amounted to 4. Molecule “SpmX-L (SpmX lysozyme-like domain alone, residues 1 to 155) (domain or fragment)” returned an overall SPR response relative to WT SpmX at comparable concentrations in data set [4] of 2 fold.

B1: SpmX (purified WT SpmX without its transmembrane region, residues 1 to 355) (domain or fragment, Caulobacter crescentus, UniProt A0A0H3C9Y4 1-355, looked up)
chain: MKPRHQVSRAAVDLIKRFEGYRQKAAQLPDGRWTVGYGHTLTAREGASVSEKDAEALLLYDLISVAHSVNEHTYTPLNQNQFDALVCFAFNIGLDNFLRSGVLRRINEGSLLQAACAMEMWRKADFEGERIVIDALVRRRSAEKTLFLTPANGEWVPAPSPVLRPKVDYDASCAVPKQTPATVNTRTEGDRVIAQREEGLPLNVVVPEEDAPTATEQSAAAVAARLEAILPETPSAPASMAKPAMRQDDLGLPEPPAPTQPAAMEPAPVLFEAEPQPAPVEPPPAAPVEFTPFRLTPQASEQAEAPVEAPAPTRPAPSEPTLFGAPATGSSVFNLDGFSTSEDATVGVMDVPLVE
modifications: Atto-488 on lysine residues, approximately one dye molecule per protein (only the labelled copy SpmX* held constant in MST; unlabelled as titrant and in SPR, SEC and native gel)
notes: purified without the TM region, residues 1 to 355; predicted monomeric mass 40.1 kDa; Forms higher-order oligomers (void volume in SEC, ladder in native gel); Construct details are in Text S1; also called SpmX-ΔTM; source: purified, His-tagged
B1: the values for the Kd in data set [1], in data set [5] and in data set [6] were 630 nM, 510 ± 90 nM and 360 ± 50 nM, respectively.
